A short description of assay [1]: P450BM3 compilation plate screen (GC, cyclopropane peaks). It counts as biochemical. The note with it: for ee (cis): (R,S)-(S,R); for Absolute activity: sum of the area of the cyclopropane peaks over the area of the internal standard.
Assay [2] can be described thus: Small-scale anaerobic C—H amination with purified enzymes, azide 1. Format: biochemical. The note with it: benzosultam 3. Here is the method:
Activities are presented in TTN. […] Yields and enantioselectivies determined by HPLC analysis. * (S−R)/(S+R). nd=not determined.
Enzymes used as purified catalysts were expressed as previously described (Lewis, J. C. et al., Proc. Natl. Acad. Sci. U.S.A. 106, 16550-16555 (2009)), and were purified by anion-exchange chromatography (for holoenzymes) or Ni-NTA chromatography (for isolated heme domains). Concentrations of P450 or P411 enzymes were determined as previously reported (Omura, T. & Sato, R., J. Biol. Chem. 239, 2370-2378 (1964); Vatsis, K. P. et al., J. Inorg. Biochem. 91, 542-553 (2002)). Small-scale reactions (400 μL) were conducted in 2 mL crimp vials containing degassed buffer (0.1 M potassium phosphate pH 8.0), enzyme (0.1-0.5% catalyst loading) and oxygen depletion system (10× stock solution containing 14,000 U/mL catalase, 1,000 U/mL glucose oxidase dissolved in 0.1 M KPi pH 8.0). Enzyme (P450 or P411) solution and oxygen depletion mixture were added to the vial with a small stir bar before crimp-sealing. […] Reactions were stirred at room temperature for 24 h under positive argon pressure.
Small-scale reactions (400 μL) were conducted in 2 mL crimp vials (Agilent Technologies, San Diego, Calif.) containing buffer (0.1 M potassium phosphate pH 8.0), enzyme (0.1-0.5% catalyst loading) and oxygen depletion system (10× stock solution containing 14,000 U/mL catalase, 1,000 U/mL glucose oxidase dissolved in 0.1 M KPi pH 8.0). Enzyme (P450 or P411) solution and oxygen depletion mixture were added to the vial with a small stir bar before crimp-sealing. […] In the meantime, the headspace of the sealed 2 mL reaction vial with the P450 solution was made anaerobic by flushing argon over the protein solution (with no bubbling). The buffer/reductant/glucose solution (270 μL) was syringed into the reaction vial with continuous argon purge of the vial headspace. An arylsulfonyl azide solution in DMSO (10 μL, 80 mM) was added to the reaction vial via a glass syringe, and the reaction was left stirring for 24 h at room temperature under positive argon pressure. […] Reactions were quenched by adding 30 μL 3 M HCl under argon. To the vials were then added acetonitrile (430 uL) and internal standard (o-toluenesulfonamide 10 mM in 50% acetonitrile 50% water, 1 mM final concentration). This mixture was then transferred to a microcentrifuge tube, and centrifuged at 17,000×g for 10 minutes. A portion (20 μL) of the supernatant was then analyzed by HPLC. For LC-MS analysis, the quenched reaction mixture was extracted twice with ethyl acetate (2×350 μL), dried under a light argon stream and resuspended in 50% water-acetonitrile (100 μL). For chiral HPLC the reactions were extracted as above with ethyl acetate, dried and resuspended in DMSO (100 μL) and then C18 purified as described above. The C18 purified material was dried, and resuspended in acetonitrile, and then injected onto the chiral HPLC system for analysis. Sultam formation was quantified comparison of integrated peak areas of internal standard and sultam at 220 nm to a calibration curve made using synthetically produced sultam and internal standard.
Purified enzymes were screened for activity in small scale reactions (400 μL) under anaerobic conditions as described above. Reactions were carried out using 0.5% mol of enzyme (10 μM) with respect to the triethylsulfonyl azide substrate 1 (2 mM). Standard reaction conditions described above were employed. Diethyl benzosultam product 3 (FIG. 18) was analyzed and quantified by reversed-phase HPLC (see above).
Small-scale reactions (400 μL total volume) were set up and worked up. Control reactions were performed with both the holoenzyme (BM3 with covalently linked reductase domain) and the isolated heme domain. […] Reactions of the complete system with heme domain (CS heme) included 2 mM Na2S2O4 rather than NADPH unless otherwise indicated in the table. […]

The mark [3] stands for this setting: chiral β-CDX GC, P450BM3 variants.
[4] abbreviates: diastereomeric excess = ([cis] − [trans])/([cis] + [trans]), P450BM3 variants.

Substitutions are numbered along the chain they refer to. Names and notes keep the numbering of the source.

B1: WT F87A: P450BM3 variant: F87A (protein, listed as Bacillus megaterium)
chain: TIKEMPQPKTFGELKNLPLLNTDKPVQALMKIADELGEIFKFEAPGRVTRYLSSQRLIKEACDESRFDKNLSQALKFVRDFAGDGLATSWTHEKNWKKAHNILLPSFSQQAMKGYHAMMVDIAVQLVQKWERLNADEHIEVPEDMTRLTLDTIGLCGFNYRFNSFYRDQPHPFITSMVRALDEAMNKLQRANPDDPAYDENKRQFQEDIKVMNDLVDKIIADRKASGEQSDDLLTHMLNGKDPETGEPLDDENIRYQIITFLIAGHETTSGLLSFALYFLVKNPHVLQKAAEEAARVLVDPVPSYKQVKQLKYVGMVLNEALRLWPTAPAFSLYAKEDTVLGGEYPLEKGDELMVLIPQLHRDKTIWGDDVEEFRPERFENPSAIPQHAFKPFGNGQRACIGQQFALHEATLVLGMMLKHFDFEDHTNYELDIKETLTLKPEGFVVKAKSKKIPLGGIPSPSTEQSAKKVRKKAENAHNTPLLVLYGSNMGTAEGTARDLADIAMSKGFAPQVATLDSHAGNLPREGAVLIVTASYNGHPPDNAKQFVDWLDQASADEVKGVRYSVFGCGDKNWATTYQKVPAFIDETLAAKGAENIADRGEADASDDFEGTYEEWREHMWSDVAAYFNLDIENSEDNKSTLSLQFVDSAADMPLAKMHGAFSTNVVASKELQQPGSARSTRHLEIELPKEASYQEGDHLGVIPRNYEGIVNRVTARFGLDASQQIRLEAEEEKLAHLPLAKTVSVEELLQYVELQDPVTRTQLRAMAAKTVCPPHKVELEALLEKQAYKEQVLAKRLTMLELLEKYPACEMKFSEFIALLPSIRPRYYSISSSPRVDEKQASITVSVVSGEAWSGYGEYKGIASNYLAELQEGDTITCFISTPQSEFTLPKDPETPLIMVGPGTGVAPFRGFVQARKQLKEQGQSLGEAHLYFGCRSPHEDYLYQEELENAQSEGIITLHTAFSRMPNQPKTYVQHVMEQDGKKLIELLDQGAHFYICGDGSQMAPAVEATLMKSYADVHQVSEADARLWLQQLEEKGRYAKDVWAG
modifications: cytochrome P450NADPH-P-450 reductase precursor, cytochrome P450 (BM3), CYP102A1
B1: the “ee (cis)” value in assay [1] (chimeric P450s) is listed as 56; in assay [1] (setting [3]), 57. Moreover, the de is on record as −28 in assay [1] (([cis] − [trans])/([cis] + [trans]), chimeric P450s) and −28 in assay [1] (setting [4]). Moreover, the Absolute activity in assay [1] (P450BM3 variants) and in assay [1] (chimeric P450s) was 0.001704 throughout.

B2: WT T88L: P450BM3 variant: T88L (protein, listed as Bacillus megaterium)
chain: B1 chain with A87F, T88L
modifications: cytochrome P450NADPH-P-450 reductase precursor, cytochrome P450 (BM3), CYP102A1
With B2, in assay [1] (setting [3]), the “ee (cis)” value is 23. Besides, in assay [1] (setting [4]), the de is given as −78. Besides, the Absolute activity in assay [1] (P450BM3 variants) amounted to 0.004522.

B3: WT A328V: P450BM3 variant: A328V (protein, listed as Bacillus megaterium)
chain: B1 chain with A87F, A328V
modifications: cytochrome P450NADPH-P-450 reductase precursor, cytochrome P450 (BM3), CYP102A1
As for B3, the de in assay [1] (setting [4]) is recorded as −100. The molecule further came in with an Absolute activity in assay [1] (P450BM3 variants) of 0.00083.

B4: 9-10A TS: V78A, P142S, T175I, A184V, S226R, H236Q, E252G, A290V, L353V, I366V, E442K (protein, listed as Bacillus megaterium)
chain: TIKEMPQPKTFGELKNLPLLNTDKPVQALMKIADELGEIFKFEAPGRVTRYLSSQRLIKEACDESRFDKNLSQALKFARDFAGDGLFTSWTHEKNWKKAHNILLPSFSQQAMKGYHAMMVDIAVQLVQKWERLNADEHIEVSEDMTRLTLDTIGLCGFNYRFNSFYRDQPHPFIISMVRALDEVMNKLQRANPDDPAYDENKRQFQEDIKVMNDLVDKIIADRKARGEQSDDLLTQMLNGKDPETGEPLDDGNIRYQIITFLIAGHETTSGLLSFALYFLVKNPHVLQKVAEEAARVLVDPVPSYKQVKQLKYVGMVLNEALRLWPTAPAFSLYAKEDTVLGGEYPLEKGDEVMVLIPQLHRDKTVWGDDVEEFRPERFENPSAIPQHAFKPFGNGQRACIGQQFALHEATLVLGMMLKHFDFEDHTNYELDIKETLTLKPKGFVVKAKSKKIPLGGIPSPSTEQSAKKVRKKAENAHNTPLLVLYGSNMGTAEGTARDLADIAMSKGFAPQVATLDSHAGNLPREGAVLIVTASYNGHPPDNAKQFVDWLDQASADEVKGVRYSVFGCGDKNWATTYQKVPAFIDETLAAKGAENIADRGEADASDDFEGTYEEWREHMWSDVAAYFNLDIENSEDNKSTLSLQFVDSAADMPLAKMHGAFSTNVVASKELQQPGSARSTRHLEIELPKEASYQEGDHLGVIPRNYEGIVNRVTARFGLDASQQIRLEAEEEKLAHLPLAKTVSVEELLQYVELQDPVTRTQLRAMAAKTVCPPHKVELEALLEKQAYKEQVLAKRLTMLELLEKYPACEMKFSEFIALLPSIRPRYYSISSSPRVDEKQASITVSVVSGEAWSGYGEYKGIASNYLAELQEGDTITCFISTPQSEFTLPKDPETPLIMVGPGTGVAPFRGFVQARKQLKEQGQSLGEAHLYFGCRSPHEDYLYQEELENAQSEGIITLHTAFSRMPNQPKTYVQHVMEQDGKKLIELLDQGAHFYICGDGSQMAPAVEATLMKSYADVHQVSEADARLWLQQLEEKGRYAKDVWAG
modifications: cytochrome P450NADPH-P-450 reductase precursor, cytochrome P450 (BM3), CYP102A1
notes: V78A, P142S, T175I, A184V, S226R, H236Q, E252G, A290V, L353V, I366V, E442K
B4: the “ee (cis)” value in assay [1] (setting [3]) is on record as −54. In addition, the de in assay [1] (setting [4]) was −75. The Absolute activity in assay [1] (P450BM3 variants) is recorded as 0.00192.

B5: ABC-CIS-A268T: BM3-CIS + C400S + A268T (9-10A TS + F87V, C400S) (protein, listed as Bacillus megaterium)
chain: B4 chain with F87V, C400S
modifications: cytochrome P450NADPH-P-450 reductase precursor, cytochrome P450 (BM3), CYP102A1
In assay [2] (0.1 mol % catalyst loading (2 μM), 2 mM azide 1, 2 mM NADPH), B5 had a TTN of 82. In addition, the “% ee” value in assay [2] (0.1 mol % catalyst loading, (S−R)/(S+R)) was determined as 47%.

These data come from patent publication US20150267232A1, “IN VIVO AND IN VITRO CARBENE INSERTION AND NITRENE TRANSFER REACTIONS CATALYZED BY HEME ENZYMES” (California Institute of Technology, priority 2012, published 2015).
